Measurements from US8710008B2, “Compounds, compositions and use” (Universitetet I Oslo, priority 2008, dated 2014).
Where two headings read alike, the source gives them in different places. Blank lines part the entries; values can stand above or below the molecule they belong to. Positions of bridges follow the written chain, without caps; N, C: chain ends. *: point of attachment. Boc = CC(C)(C)OC(=O)*

Columns and labels:
[1] = system: crude membranes from rat cerebellum; test: Radioligand binding assay of [3H]peptide on crude membranes from rat cerebellum
Method: The radiolabelled compound denoted [3H]peptide was custom synthesised from the unsaturated precursor 29 (Example 27) by Perkin Elmer Health Sciences Inc., 549 Albany Street, Boston, Mass. 02118, U.S.A. The radioactive compound was received as an EtOH solution. The total activity of the sample was 1 mCi. and the radiological concentration was 2 mCi/mL. The specific activity was 42.9 Ci/mmol and the radiochemical purity (determined by HPLC) 99.8%. The specific activity was determined by mass spectrometry.
Female Wistar rats weighing 250-300 g (Mollegaard, Ejby, Denmark) were used. Experimental protocols conform to National Institutes of Health guidelines for the care and use of animals.
Brain cerebella (1:5 wt/vol) in ice cold 0.3 M sucrose, 50 mM Hepes, pH 7.4, 2 mM EDTA, protease inhibitors (Complete; Roche, Mannheim, Germany) were homogenised in clay-beads-containing tubes by Fastprep shaker and centrifuged at 1,000 g for 10 min at 4° C. The supernatant was spun down at 42,000 g for 60 min at 4° C. […] Protein concentration was determined by the DC Protein Assay Kit (Bio-Rad). […]
Binding data were analysed by non-linear regression using Microsoft Excel with the Solver add-in. The non-specific binding was assumed to be linear as a function of the concentration of free [^3H]peptide and analysed by linear regression. […]

AQP1 = target: T1, AQP1 (Homo sapiens, UniProt P29972); conditions: cited from earlier work
T1 sequence (P29972 1-269): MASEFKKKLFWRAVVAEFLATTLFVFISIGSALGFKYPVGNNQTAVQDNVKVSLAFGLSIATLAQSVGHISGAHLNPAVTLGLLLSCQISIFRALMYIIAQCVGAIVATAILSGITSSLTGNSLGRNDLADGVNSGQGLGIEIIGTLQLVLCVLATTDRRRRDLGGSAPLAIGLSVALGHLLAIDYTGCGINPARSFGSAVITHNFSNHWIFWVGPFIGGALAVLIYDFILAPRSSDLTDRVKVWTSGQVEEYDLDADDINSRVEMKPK

AQP4 [2] = target: T2, AQP4 (Homo sapiens, UniProt P55087); conditions: cited from earlier work
T2 sequence (P55087 whole entry, species assumed): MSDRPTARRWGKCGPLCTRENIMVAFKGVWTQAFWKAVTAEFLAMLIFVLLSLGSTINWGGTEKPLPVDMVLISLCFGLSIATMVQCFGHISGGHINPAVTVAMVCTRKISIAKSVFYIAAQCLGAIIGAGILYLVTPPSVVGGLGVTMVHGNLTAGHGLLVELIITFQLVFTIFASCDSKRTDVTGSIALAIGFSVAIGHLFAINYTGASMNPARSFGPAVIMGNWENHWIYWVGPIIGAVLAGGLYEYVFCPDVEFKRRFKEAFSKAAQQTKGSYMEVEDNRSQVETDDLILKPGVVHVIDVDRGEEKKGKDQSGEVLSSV

AQP4 [3] = target: T2, AQP4; conditions: liposome-based assay; cited from earlier work
[4] = target: crude membranes from rat cerebellum (rat); test: radioligand saturation binding, non-linear regression, fit weighted 1/Y
[5] = target: crude membranes from rat cerebellum (rat); test: radioligand saturation binding, filter assay, crude membranes
[6] = target: crude membranes from rat cerebellum (rat); test: radioligand saturation binding, non-linear regression, fit weighted 1/Y^2
[7] = target: crude membranes from rat cerebellum (rat); test: radioligand saturation binding, non-linear regression, unweighted fit

Molecule: [^3H]peptide: radiolabelled compound custom synthesised from the unsaturated precursor 29 (Example 27); specific activity 42.9 Ci/mmol (Boc-PPSVVSG-OMe; bridge 3-6; not fully specified (bridges); also: tritium label)
Specific binding ([1]; difference without and with 100 μM unlabelled peptide): 0.5-1 pmol/mg membrane protein
Kd ([1]; specific binding, non-specific defined with 100 μM unlabelled peptide, read-out: Kd value (affinity)): 100 to 200 nM

Molecule: CC(=O)Nc1nnc(S(N)(=O)=O)s1 [Acetazolamide]
Effect on water permeation through AQP1 (AQP1; Y. Tanimura et al. 2009): not through AQP1
Effect on water permeation through AQP4 (AQP4 [2]; Y. Tanimura et al. 2009): reversibly inhibits
IC50 (AQP4 [2]; Y. Tanimura et al. 2009, read-out: IC50 of inhibition of water permeation through AQP4): > 1 mM

Molecule: CC[N+](CC)(CC)CC [tetraethylammonium ions, tetraethylammonium]
Effect on AQP1 (AQP1; R. Søgaard et al. 2008): no effect
Effect on AQP4 (AQP4 [2]; up to 10 mmolar concentration, B. Yang et al. 2006): no effect

Molecule: [Cl][Hg][Cl] [mercury chloride]
Effect on AQP4 (AQP4 [3]): inhibit AQP4

Bmax [4]: 1920 cpm
Bmax (fmol/mg protein) [4]: 1000
Kd [4]: 92.7 nM
Kd [5]: 100 to 200 nM
specific binding (Bmax) (pmol/mg membrane protein) [5]: 0.5 to 1
Bmax [6]: 1920 cpm
Bmax (fmol/mg protein) [6]: 1000
Kd [6]: 92.7 nM
Bmax [7]: 2140 cpm
Bmax (fmol/mg protein) [7]: 1120
Kd [7]: 107 nM
Molecule: Boc-PPSVVSG-OMe (bridge 3-6; also: tritium label)
